The target of the test is T1, NAC CoV2 Mosaic (SARS-COV-2).
T1 construct: also called NAC Mosaic (The Native Antigen Company)
Briefly: ForteBio. For orientation: In BLI a coated tip is dipped into the sample, and binding shifts an interference pattern.

Broadly, the Kd is the concentration at which binding is half-saturated. Read a high Kd as weaker binding.

B1: SC2 antibody 3396 (antibody, V domains shown)
VH: GVQLVESGGGLVQPGRSLRVSCAASGFTFADYAMHWVRQAPGKGLEWVSGISWNSGNIAYADSVKGRFTISRDNAKNSLYLQMDSLRPDDTALYYCVKASTLYYYFYMDVWGKGTTVTVSS
VL: QSALTQPPSASGSPGQSVTISCTGTSSDVGGYDYVSWYQQHPGKAPKFMIYEVSKRPSGVPDRFSGSKSGNTASLTVSGLQAEDEADYYCCSYAGSNNYVFGTGTKVTVLG
notes: also called Anti-SARS-COV-2 antibody 3396
The molecule B1 returned a Kd of 21 nM.

These data come from patent publication US20240190946A1 (AUGMENTA BIOWORKS, published 2024).
